Assay results published in patent US20050238685A1, “Method of binding a compound to a surface” (priority 2002, published 2005).
Read-outs that look alike come from different tables or passages of the source.

Assays:
[1] = class I: resisting 2% SDS at 100° C., class II: 60% ethanol; cited from earlier work
[2] = at 50 μg ml^−1; cited from earlier work
[3] = cited from earlier work
[4] = Circular dichroism of enzymes on binding to bare or hydrophobin-coated colloidal TEFLON; type: physicochemical; details: bare colloidal TEFLON
[5] = Esterase, lipase and trypsin on SC3-coated oil droplets, spectrophotometric substrate conversion; type: biochemical
Protocol: The sheets with and without immobilized enzyme were used in a chromogenic assay. A 1.5 ml cuvette was filled with 1 ml of a 5 mM 4-nitrophenyl acetate solution (esterase substrate), 5 mM Na-benzoyl-DL-arginine-p-nitroanilide (trypsin substrate), or 5 mM 1,2-di-O-decanoyl-rac-glycero-3-glutaric acid-resorufin labeled in the appropriate buffers. The cuvette was placed in the spectrophotometer and the reaction was started by placing the hydrophobin-coated sheets with or without immobilized enzyme in the cuvette parallel to the light beam. The light absorbance at the appropriate wavelength was followed in time. After one hour of incubation, the sheets were taken from the cuvette and the reaction in the cuvette was followed for an additional 24 hours. The sheets were washed with water and were transferred to a new cuvette with fresh substrate and the reaction was followed again. […] 400 μl of a 100 μg/ml solution of the mentioned enzymes was added to a 1 mm cuvette and a circular dichroism spectrum was recorded between 190 and 250 nm. To this solution, increasing concentrations of pure colloidal TEFLON™ or hydrophobin-coated TEFLON™ was added and changes were followed by recording CD-spectra. […] When TEFLON™ coated with hydrophobin is added to the enzyme solutions, the changes in CD signal (after correction for the hydrophobin signal) are less pronounced. […]

[6] = Different enzymes immobilized via SC3 hydrophobin on TEFLON, spectrophotometry at 412 and 435 nm; type: biochemical; details: SC3-coated TEFLON; for function after storage: 4° C. in buffer solution
Protocol: The surface was first coated with SC3 hydrophobin by immersion in the protein aqueous solution (0.3 mg/mL) during approximately 30 minutes. The obtained modified surface was then immersed in an aqueous enzyme solution during approximately 30 minutes. After each step, the TEFLON™ surface was rinsed with an adequate buffer solution. Activity of the immobilized enzymes was followed by spectrophotometry at 412 and 435 nm after immersion of the functionalized surface in the corresponding substrate solution. The optical density of the solution increases after the immersion of the functionalized surface and stays constant after its removal. […] The functionalized TEFLON® was stored at 4° C. in an Eppendorf tube containing a buffer solution.
(Biocatalysts, Wales; final concentration 2.1 mg/mL), lipase from Candida cylindracea (Biocatalysts, Wales; final concentration 0.25 mg/mL), porcine liver esterase (SIGMA; 41 U/mg of solid, final concentration 2.4 mg/mL), bovine pancreas trypsin (SIGMA; 8,750 U/mg of solid).

[7] = type: biochemical
Protocol: The sheets were removed from the hydrophobin solution and were immediately washed with large amounts of water to remove any unbound hydrophobin (5×50 ml water for five minutes); these coatings are referred to as the α-helix state. Part of the sheets were boiled in a 2% SDS solution for ten minutes, after which the sheets were extensively washed with water; these coatings are referred to as the β-sheet state. The colloidal TEFLON™ was collected by gentle centrifugation (two minutes, 2000 rpm), the supernatant was removed and the TEFLON™ pellet was resuspended in 2 ml pure water followed by centrifugation. The TEFLON™ pellet was washed five times with water to remove all unbound hydrophobin.
The bare and hydrophobin-coated sheets (α-helix state and β-sheet state) were incubated in 2 ml of enzyme solution in 3 ml glass vials at 25° C. for two hours. The used enzyme solutions were 100 μg/ml of 60 kD esterase (porcine liver), 40 kD lipase (wheat germ), or 25 kD trypsin (bovine pancreas). The sheets were washed extensively with water to remove any unbound enzyme.
The sheets with and without immobilized enzyme were used in a chromogenic assay. A 1.5 ml cuvette was filled with 1 ml of a 5 mM 4-nitrophenyl acetate solution (esterase substrate), 5 mM Na-benzoyl-DL-arginine-p-nitroanilide (trypsin substrate), or 5 mM 1,2-di-O-decanoyl-rac-glycero-3-glutaric acid-resorufin labeled in the appropriate buffers. The cuvette was placed in the spectrophotometer and the reaction was started by placing the hydrophobin-coated sheets with or without immobilized enzyme in the cuvette parallel to the light beam. The light absorbance at the appropriate wavelength was followed in time. After one hour of incubation, the sheets were taken from the cuvette and the reaction in the cuvette was followed for an additional 24 hours. The sheets were washed with water and were transferred to a new cuvette with fresh substrate and the reaction was followed again. […] 400 μl of a 100 μg/ml solution of the mentioned enzymes was added to a 1 mm cuvette and a circular dichroism spectrum was recorded between 190 and 250 nm. To this solution, increasing concentrations of pure colloidal TEFLON™ or hydrophobin-coated TEFLON™ was added and changes were followed by recording CD-spectra. […] When TEFLON™ coated with hydrophobin is added to the enzyme solutions, the changes in CD signal (after correction for the hydrophobin signal) are less pronounced. […] Furthermore, oil droplets were coated with hydrophobin. Coating of oil droplets was achieved by emulsifying 100 μl of oil (mineral oil or paraffin oil) in 3 ml of water by sonication and adding 3 ml of an aqueous solution of hydrophobin (200 μg/ml). Alternatively, the oil was directly emulsified in the hydrophobin solution and 3 ml was added. […]

B1: cerato-ulmin: class II hydrophobin of Ophiostoma ulmi (protein, UniProt Q06153 26-100, looked up)
Class II hydrophobin CU: SDSYDPCTGLLQKSPQCCNTDILGVANLDCHGPPSVPTSPSQFQASCVADGGRSARCCTLSLLGLALVCTDPVGI
solubility of assembled membranes [1]: readily dissociate in 60% ethanol and in 2% SDS

B2: alkaline phosphatase: human placental alkaline phosphatase (Roche) (protein)
chain: IIPVEEENPDFWNREAAEALGAAKKLQPAQTAAKNLIIFLGDGMGVSTVTAARILKGQKKDKLGPEIPLAMDRFPYVALSKTYNVDKHVPDSGATATAYLCGVKGNFQTIGLSAAARFNQCNTTRGNEVISVMNRAKKAGKSVGVVTTTRVQHASPAGTYAHTVNRNWYSDADVPASARQEGCQDIATQLISNMDIDVILGGGRKYMFRMGTPDPEYPDDYSQGGTRLDGKNLVQEWLAKRQGARYVWNRTELMQASLDPSVTHLMGLFEPGDMKYEIHRDSTLDPSLMEMTEAALRLLSRNPRGFFLFVEGGRIDHGHHESRAYRALTETIMFDDAIERAGQLTSEEDTLSLVTADHSHVFSFGGYPLRGSSIFGLAPGKARDRKAYTVLLYGNGPGYVLKDGARPDVTESESGSPEYRQQSAVPLDEETHAGEDVAVFARGPQAHLVHGVQEQTFIAHVMAFAACLEPYTACDLAPPAGTTD
activity of enzyme attached to bare wells: not active

B3: SC3: class I hydrophobin of Schizophyllum commune (protein)
chain: GGHPGTTTPPVTTTVTVTTPPSTTTIAAGGTCTTGSLSCCNQVQSASSSPVTALLGLLGIVLSDLNVLVGISCSPLTVIGVGGSGCSAQTVCCENTQFNGLINIGCTPINIL
maximal lowering of the water surface tension, from 72 to [2]: 24 mJ m^−2
water contact angle of coated TEFLON ([3]; TEFLON (110°) coated with hydrophobin): 48 °
water contact angle ([3]; hydrophilic side of the membrane): 36 °
water contact angle ([3]; hydrophobic side of the membrane): 110 °

B4: cryparin: class II hydrophobin of Cryphonectria parasitica (protein, UniProt P52753 23-118, looked up)
Class II hydrophobin CRP: GGGGGGSGSGSGSGSGSGSGGGSTTYTACSSTLYSEAQCCATDVLGVADLDCETVPETPTSASSFESICATSGRDAKCCTIPLLGQALLCQDPVGL
solubility of assembled membranes [1]: readily dissociate in 60% ethanol and in 2% SDS

B5: trypsin: bovine pancreas trypsin, 25 kD (protein)
chain: IVGGYTCGANTVPYQVSLNSGYHFCGGSLINSQWVVSAAHCYKSGIQVRLGEDNINVVEGNEQFISASKSIVHPSYNSNTLNNDIMLIKLKSAASLNSRVASISLPTSCASAGTQCLISGWGNTKSSGTSYPDVLKCLKAPILSDSSCKSAYPGQITSNMFCAGYLEGGKDSCQGDSGGPVVCSGKLQGIVSWGSGCAQKNKPGVYTKVCNYVSWIKQTIASN
structural change in CD-spectra upon binding [4]: underwent structural changes
catalytic activity of immobilized enzyme [5]: still catalytically active
state of immobilized enzymes (denaturation, desorption) [6]: not denatured and are not desorbed from the surface
function after storage [6]: still functional after several weeks
activity and stability of enzyme attached to hydrophobin-coated sheets [7]: active and stable for up to one month
activity of enzyme attached to bare sheets [7]: not active

B6: esterase: porcine liver esterase, 60 kD (protein)
chain: GQPASPPVVDTAQGRVLGKYVSLEGLAQPVAVFLGVPFAKPPLGSLRFAPPQPAEPWSFVKNTTSYPPMCCQDPVVEQMTSDLFTNGKERLTLEFSEDCLYLNIYTPADLTKRGRLPVMVWIHGGGLVLGGAPMYDGVVLAAHENVVVVAIQYRLGIWGFFSTGDEHSRGNWGHLDQVAALHWVQENIANFGGDPGSVTIFGESAGGESVSVLVLSPLAKNLFHRAISESGVALTVALVRKDMKAAAKQIAVLAGCKTTTSAVFVHCLRQKSEDELLDLTLKMKFLTLDFHGDQRESHPFLPTVVDGVLLPKMPEEILAEKDFNTVPYIVGINKQEFGWLLPTMMGFPLSEGKLDQKTATSLLWKSYPIANIPEELTPVATDKYLGGTDDPVKKKDLFLDLMGDVVFGVPSVTVARQHRDAGAPTYMYEFQYRPSFSSDKKPKTVIGDHGDEIFSVFGFPLLKGDAPEEEVSLSKTVMKFWANFARSGNPNGEGLPHWPMYDQEEGYLQIGVNTQAAKRLKGEEVAFWNDLLSKEAAKKPPKIKHAEL
structural change in CD-spectra upon binding [4]: underwent structural changes
catalytic activity of immobilized enzyme [5]: still catalytically active
state of immobilized enzymes (denaturation, desorption) [6]: not denatured and are not desorbed from the surface
function after storage [6]: still functional after several weeks
activity and stability of enzyme attached to hydrophobin-coated sheets [7]: active and stable for up to one month
activity of enzyme attached to bare sheets [7]: not active
